Target: His6-eIF4A1 (UniProt P60843 1-406)
Experiment: fluorescence polarization

Sequence of His6-eIF4A1 (P60843 whole entry): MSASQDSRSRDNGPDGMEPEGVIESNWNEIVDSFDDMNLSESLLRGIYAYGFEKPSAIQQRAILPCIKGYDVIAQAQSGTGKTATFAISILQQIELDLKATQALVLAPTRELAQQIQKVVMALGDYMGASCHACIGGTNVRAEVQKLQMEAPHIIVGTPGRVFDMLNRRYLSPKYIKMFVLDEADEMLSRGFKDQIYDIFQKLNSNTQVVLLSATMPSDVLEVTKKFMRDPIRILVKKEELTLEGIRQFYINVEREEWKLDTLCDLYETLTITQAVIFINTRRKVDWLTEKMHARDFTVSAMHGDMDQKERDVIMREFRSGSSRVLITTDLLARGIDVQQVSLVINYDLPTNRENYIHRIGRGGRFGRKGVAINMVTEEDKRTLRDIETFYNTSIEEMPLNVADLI

B1: r(AG)8 (ssRNA)
RNA: AGAGAGAGAGAGAGAG
binding result: binds

— paper PMC7077502
